Target: T1, LgBiT-tagged human M2 muscarinic acetylcholine receptor (human, UniProt P08172 1-466)
T1 construct: M2 muscarinic acetylcholine receptor, human, Gi-coupled; stimulated with 10 µM carbachol; also called M2R; source: HEK293 arrestin-2/3 knockout cells, transfected (pcDNA3), in live cells; not shown: LgBiT (17.6 kDa, with the 4-amino acid linker APAG), C-terminal, kept
T1 sequence (looked up): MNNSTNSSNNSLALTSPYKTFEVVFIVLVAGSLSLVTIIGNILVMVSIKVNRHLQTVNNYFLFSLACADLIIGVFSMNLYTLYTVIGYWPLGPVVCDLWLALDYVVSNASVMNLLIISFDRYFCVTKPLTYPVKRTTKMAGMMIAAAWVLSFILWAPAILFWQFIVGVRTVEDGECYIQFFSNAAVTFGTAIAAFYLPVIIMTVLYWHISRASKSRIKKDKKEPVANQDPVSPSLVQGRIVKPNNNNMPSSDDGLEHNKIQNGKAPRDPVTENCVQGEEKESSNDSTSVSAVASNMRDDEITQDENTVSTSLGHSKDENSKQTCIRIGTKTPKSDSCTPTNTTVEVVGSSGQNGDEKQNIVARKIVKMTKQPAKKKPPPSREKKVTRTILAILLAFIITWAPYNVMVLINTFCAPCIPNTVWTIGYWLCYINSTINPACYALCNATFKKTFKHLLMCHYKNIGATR
Assay: split reporter (BiFC, NanoBiT); NanoBiT complementation in live HEK293 arrestin-2/3 KO cells: SmBiT-arrestin-3 and receptor-LgBiT co-expressed; luminescence read 20 min with nanoGlo substrate, then agonist added (10 µM isoproterenol for β2AR, 10 µM carbachol for M2R) and read 40 min; signal normalized to the basal signal without agonist
Settings: partners not purified

B1: SmBiT-tagged WT arrestin-3 (natural protein, UniProt P32120-2 1-409, looked up)
chain: MGEKPGTRVFKKSSPNCKLTVYLGKRDFVDHLDKVDPVDGVVLVDPDYLKDRKVFVTLTCAFRYGREDLDVLGLSFRKDLFIANYQAFPPTPNPPRPPTRLQERLLRKLGQHAHPFFFTIPQNLPCSVTLQPGPEDTGKACGVDFEIRAFCAKSLEEKSHKRNSVRLVIRKVQFAPEKPGPQPSAETTRHFLMSDRSLHLEASLDKELYYHGEPLNVNVHVTNNSTKTVKKIKVSVRQYADICLFSTAQYKCPVAQVEQDDQVSPSSTFCKVYTITPLLSNNREKRGLALDGKLKHEDTNLASSTIVKEGANKEVLGILVSYRVKVKLVVSRGGDVSVELPFVLMHPKPHDHIALPRPQSAAPETDAPVDTNLIEFETNYATDDDIVFEDFARLRLKGLKDEDYDDQFC
notes: also called arr3; WT arr3; source: HEK293 arrestin-2/3 knockout cells, transfected (pcDNA3), in live cells
- agonist-induced luminescence, fold over basal: ~8 fold

From publication PMC10296906, “GPCR Binding and JNK3 Activation by Arrestin-3 Have Different Structural Requirements” (Cells, 2023)
